Assay [1] has as its target FMN1 FH1-FH2 (Mus musculus) (UniProt Q05860). The note with it: cited from earlier work.
The next assay deals with T1, Extended FH2 FMN1 (mouse, UniProt Q05860 961-1466).
T1 sequence (looked up): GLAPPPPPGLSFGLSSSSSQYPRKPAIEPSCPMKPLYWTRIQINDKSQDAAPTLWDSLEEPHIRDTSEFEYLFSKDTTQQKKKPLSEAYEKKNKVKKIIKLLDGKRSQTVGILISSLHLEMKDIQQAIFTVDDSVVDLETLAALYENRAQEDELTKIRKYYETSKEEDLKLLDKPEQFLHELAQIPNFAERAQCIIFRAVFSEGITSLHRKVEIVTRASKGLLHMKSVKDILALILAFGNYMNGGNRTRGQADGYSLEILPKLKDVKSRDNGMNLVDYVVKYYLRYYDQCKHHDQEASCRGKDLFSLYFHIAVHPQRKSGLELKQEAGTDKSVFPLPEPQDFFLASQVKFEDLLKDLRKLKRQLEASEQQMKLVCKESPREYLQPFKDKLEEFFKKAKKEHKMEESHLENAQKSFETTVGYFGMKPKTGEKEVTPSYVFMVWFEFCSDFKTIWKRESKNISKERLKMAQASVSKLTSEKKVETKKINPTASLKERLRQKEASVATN
Nature of the assay: SPR; Biacore T200; WW1-WW2 FNBP4 amine-coupled to a CM5 chip (1016.5 RU); Extended FH2 FMN1 flowed over at various concentrations; HBS-N running buffer; 25 °C; association 120 s, dissociation 380 s; global fit to a 1:1 Langmuir model. The note with it: both partners purified. (In SPR one partner is held on a chip, and binding of the other changes the refractive index at the surface.)

The term Kd denotes a measure of binding affinity in units of concentration. Usually koff stands for the rate constant with which the complex falls apart. A higher koff goes with fast dissociation. For orientation: kon means the second-order rate constant of association.

Sequence of FMN1 FH1-FH2 (Mus musculus) (Q05860 870-1435): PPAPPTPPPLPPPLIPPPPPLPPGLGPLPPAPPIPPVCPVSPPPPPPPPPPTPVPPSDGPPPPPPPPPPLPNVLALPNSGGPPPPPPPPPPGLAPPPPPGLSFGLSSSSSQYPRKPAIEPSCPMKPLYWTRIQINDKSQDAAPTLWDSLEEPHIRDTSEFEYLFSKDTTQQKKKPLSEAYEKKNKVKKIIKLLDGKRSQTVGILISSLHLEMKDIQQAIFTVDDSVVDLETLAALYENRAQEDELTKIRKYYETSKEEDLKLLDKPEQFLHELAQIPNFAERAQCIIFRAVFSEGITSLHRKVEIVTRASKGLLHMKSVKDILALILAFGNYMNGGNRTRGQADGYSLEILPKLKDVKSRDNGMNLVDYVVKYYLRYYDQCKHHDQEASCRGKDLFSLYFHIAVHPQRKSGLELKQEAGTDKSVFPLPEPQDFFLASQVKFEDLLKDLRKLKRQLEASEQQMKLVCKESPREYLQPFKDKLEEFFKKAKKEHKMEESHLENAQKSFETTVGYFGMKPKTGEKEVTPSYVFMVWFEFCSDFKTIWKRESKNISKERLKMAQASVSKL

Consider FNBP4 WW1-WW2 (from UniProt Q6ZQ03), for which the Kd in assay [1] is 2 nM.

B1: N-terminal WW1-WW2 FNBP4 (domain or fragment, human, UniProt Q8N3X1 214-629, looked up)
chain: GIEMGDWQEVWDENTGCYYYWNTQTNEVTWELPQYLATQVQGLQHYQPSSVPGAETSFVVNTDIYSKEKTISVSSSKSGPVIAKREVKKEVNEGIQALSNSEEEKKGVAASLLAPLLPEGIKEEEERWRRKVICKEEPVSEVKETSTTVEEATTIVKPQEIMLDNIEDPSQEDLCSVVQSGESEEEEEQDTLELELVLERKKAELRALEEGDGSVSGSSPRSDISQPASQDGMRRLMSKRGKWKMFVRATSPESTSRSSSKTGRDTPENGETAIGAENSEKIDENSDKEMEVEESPEKIKVQTTPKVEEEQDLKFQIGELANTLTSKFEFLGINRQSISNFHVLLLQTETRIADWREGALNGNYLKRKLQDAAEQLKQYEINATPKGWSCHWDRDHRRYFYVNEQSGESQWEFPDG
In the assay with Extended FH2 FMN1, B1 had a Kd of 36.5 nM, a koff of 0.000803 s⁻¹ and a kon of 22500 M⁻¹ s⁻¹.

Values taken from paper PMC12159680, “Nuclear protein FNBP4: A novel inhibitor of non-diaphanous formin FMN1-mediated actin cytoskeleton dynamics” (The Journal of Biological Chemistry, 2025).
